Reference: patent CN101022829A (GENENTECH INC, dated 2007)
Substitutions are numbered along the chain they refer to. Values belong to the molecule of their own block, whether it stands above or below them.

Legend:
human CD20 (human) [1] = target: T1, human CD20 (human) (UniProt P11836); experiment: cell-based or functional assay
T1 sequence (looked up): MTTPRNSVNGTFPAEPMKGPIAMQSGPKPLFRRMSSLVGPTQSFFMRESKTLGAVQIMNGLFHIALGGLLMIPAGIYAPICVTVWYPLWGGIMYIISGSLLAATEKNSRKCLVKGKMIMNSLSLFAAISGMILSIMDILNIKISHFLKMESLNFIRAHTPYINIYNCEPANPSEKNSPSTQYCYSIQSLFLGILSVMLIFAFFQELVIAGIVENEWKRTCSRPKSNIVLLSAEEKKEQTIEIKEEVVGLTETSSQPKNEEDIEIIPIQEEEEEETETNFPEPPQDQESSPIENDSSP

human CD20 (human) [2] = target: T1, human CD20 (human); experiment: Scatchard, competition with 125I-2H7.v16 on WIL2-S cells, n=3
human CD20 [3] = target: T2, human CD20 (human, UniProt P11836 1-297); experiment: cell ELISA, WIL2-S; v16 as comparator, normalised to chimera
T2 construct: whole, on cells; also called Bp35
T2 sequence (looked up): T1 sequence (looked up)

human CD20 [4] = target: T2, human CD20; experiment: Scatchard, competition with 125I-2H7.v16 on WIL2-S cells, n=4

ADCC, EC50(variant)/EC50(2H7.v16) (human CD20 (human) [1]): 5.3
ADCC, EC50(variant)/EC50(RITUXAN) (human CD20 (human) [1]): 1
CDC, EC50(variant)/EC50(RITUXAN) (human CD20 (human) [1]): 1
Kd (human CD20 (human) [2]): 0.99 nM
Molecule: RITUXAN (rituximab) (antibody)

relative binding (ratio to v6.8) (human CD20 [3]): 1.2
B1: 2H7.v138 (antibody, human IgG1, kappa, V domains shown)
VH: EVQLVESGGGLVQPGGSLRLSCAASGYTFTSYNMHWVRQAPGKGLEWVGAIYPGNGATSYNQKFKGRFTISVDKSKNTLYLQMNSLRAEDTAVYYCARVVYYSASYWYFDVWGQGTLVTVSS
VL: DIQMTQSPSSLSASVGDRVTITCRASSSVSYLHWYQQKPGKAPKPLIYAPSNLASGVPSRFSGSGSGTDFTLTISSLQPEDFATYYCQQWAFNPPTFGQGTKVEIKR

Kd (human CD20 [4]): 1.22 nM
B2: 2H7.v73 (antibody, V domains shown)
VH: B1 VH with A57D
VL: B1 VL with A91S
